What was measured:
[1] = target: T1, human PVRIG-his (AcroBiosystems, Cat NO. PVG-H52H4) (human, UniProt Q6DKI7 41-171, limits assumed); test: SPR (BIAcore), antibody captured on Protein A chip, human PVRIG-His analyte
T1 construct: also called human PVRIG protein
T1 sequence (looked up): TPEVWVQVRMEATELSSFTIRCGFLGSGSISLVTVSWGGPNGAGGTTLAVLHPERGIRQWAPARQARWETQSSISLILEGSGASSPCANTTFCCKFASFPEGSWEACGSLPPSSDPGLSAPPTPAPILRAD
Protocol: Biacore was used to detect the specific binding between anti-PVRIG antibody and human PVRIG protein. Protein A chip was used in the BIAcore assay. The time required for the chip to capture the diluted antibody and saturate the binding antigen to reach Rₘₐₓ (Maximum binding capacity, 50 RU) was measured by manual run. […] The affinity of antibody for antigen was measured by multi-cycle kinetics. In each cycle, the antibodies were injected prior to the injection of gradient concentraions of PVRIG proteins allowing the occurrence of antibody-antigen association and dissociation After each cycle, the Protein A chip was regenerated by Glycine, pH 1.5 (to remove the proteins on the chip). The affinity of antibody for antigen was calculated by BIAcore T200 analysis software.

[2] = target: T2, human PVRIG-mFc protein (Acro, PVG-H5253) (human, UniProt Q6DKI7 41-171, limits assumed); test: FACS competition, PVRIG-mFc binding to CHO-K1-CD112 cells, competitor CD112 on cells
T2 construct: bought protein
T2 sequence (looked up): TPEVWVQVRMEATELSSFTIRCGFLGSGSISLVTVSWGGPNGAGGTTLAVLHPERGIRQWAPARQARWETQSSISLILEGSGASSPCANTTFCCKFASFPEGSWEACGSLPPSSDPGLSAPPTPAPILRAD
Protocol: A working solution of human PVRIG-mFc protein (Acro, PVG-H5253) prepared with staining buffer, 1 μg/mL (four-fold concentration), was added into a 96-well plate (50 μL PVRIG-mFc working solution per well). […] The diluted antibodies were added to the well containing 50 μL of PVRIG-mFc. The plate was placed on a microplate shaker at 400 rpm for 1 minute to fully mix the antibodies and PVRIG-mFc proteins, and then incubated at 4° C. for 30 minutes. After the incubation, the cell suspension prepared above (100 μL) was added into the wells, gently mixed with the pipette tip and incubated at 4° C. for 30 minutes. After the incubation, the cells were washed twice with staining buffer (200 μL per well) and centrifuged at 350×g for 5 minutes to discard the supernatant. The PE goat anti-mouse IgG Fc antibody (Biolegend, 405337) was diluted 250 times with staining buffer, added into the washed wells (100 μL per well), mixed well, and stained at 4° C. for 30 minutes. After staining, the cells were washed twice with staining buffer, finally resuspended with 200 μL staining buffer and analyzed by flow cytometry (BD, Canto II). The weaker the fluorescence signal, the stronger the ability of the antibodies blocks the binding of CHO-K1 human CD112 cells to the PVRIG-mFc protein. An antibody binding curve was drawn with concentration of antibodies as the abscissa and the corresponding Mean Fluorescence Intensity (MFI) as the ordinate. The IC50 value of the antibodies and the AUC value of the binding curve were calculated by using a Four Parameter Logistic Fit (GraphPadPrism9). The smaller the IC50 value and AUC value, the stronger the ability of the antibodies competes with CHO-K1-CD112 cells to bind to human PVRIG-mFc protein. […] […] The smaller the percentage value, the stronger the blocking ability of the antibodies.

[3] = target: T3, Fusion protein of extracellular domain of human TIGIT and mouse IgG2a Fc fragment (human TIGIT ECD-mFc) (human); test: ELISA, human TIGIT ECD-mFc
T3 construct: The entry includes the signal peptide (limits not recoverable) and the mouse IgG2a Fc
T3 chain: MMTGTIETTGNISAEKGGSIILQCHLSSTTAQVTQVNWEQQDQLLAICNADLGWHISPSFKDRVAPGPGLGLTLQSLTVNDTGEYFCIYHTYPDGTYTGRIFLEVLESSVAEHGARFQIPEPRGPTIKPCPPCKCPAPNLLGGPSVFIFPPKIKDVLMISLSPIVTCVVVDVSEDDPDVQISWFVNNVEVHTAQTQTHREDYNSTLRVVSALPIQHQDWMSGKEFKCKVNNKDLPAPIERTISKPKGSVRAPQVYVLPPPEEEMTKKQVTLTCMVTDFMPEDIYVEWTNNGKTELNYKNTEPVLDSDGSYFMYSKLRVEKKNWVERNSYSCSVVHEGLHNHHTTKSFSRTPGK
Protocol: (§1) After discarding the coating solution, the plate was added with 5% skim milk powder (Sangon Biotech, CAT #A600669-0250)-PBS, 250 μL/well, and incubated at 37° C. for 2-4 hours. […] The enzyme-labeled plate was then washed with 0.05% Tween 20-PBS for 3 times on the Microplate Washer, added with tested antibodies diluted to 13 nM with 1% BSA (diluted by 3-fold serial dilution for 12 concentration points), 50 μL/well, and incubated at 37° C. for 1.5-2 hours. The plate was washed with 0.05% Tween 20-PBS for 3 times on the Microplate Washer, then added with HRP enzyme-labeled antibodies (Merck, CAT #AP113P) diluted with 1% BSA (Sangon Biotech, CAT #A500023-0100)-PBS at a dilution ratio of 1:5000, 50 μL/well, and incubated at 37° C. for 1 hour. After washing 3 times with 0.05% Tween 20-PBS on the Microplate Washer, the plate was added with TMB chromogenic solution (KPL, CAT #52-00-03), 50 μL/well, and incubated at room temperature for 7-10 minutes. 1M HCL, 50 μL/well, was then added into the plate to terminate the reaction, and the OD450 nm was read by a microplate reader (Biotek, Powerwave HT). […] (b) The binding activity of anti-TIGIT chimeric antibodies to CHO-K1 human TIGIT (cells with high, medium and low expression levels) and CHO-KI cynomolgus monkey TIGIT detected by FACS.
(§2) The affinity of the above humanized antibodies with human TIGIT ECD-His is detected by BIAcore, and with reference to the methods of Example 4 (a), (b), and (d), the binding activity of the above humanized antibodies to human TIGIT ECD-mFc, CHO-K1 human TIGIT, CHO-K1 cynomolgus monkey TIGIT and cynomolgus monkey TIGIT ECD-mFc, and the effect of the humanized antibodies blocking the binding between human TIGIT ECD-mFc and CHO-K1 CD155 are detected, the results are shown in Table 18.

[4] = target: T4, Fusion protein of extracellular domain of cynomolgus monkey TIGIT and mouse IgG2a Fc fragment (cynomolgus … (cynomolgus monkey)); test: ELISA, cynomolgus monkey TIGIT ECD-mFc
T4 construct: The entry includes the signal peptide (limits not recoverable) and the mouse IgG2a Fc
Protocol: as §1, §2

[5] = target: T5, Full-length cynomolgus monkey TIGIT on CHO-K1 cells (CHO-K1 cynomolgus monkey TIGIT) (cynomolgus monkey); test: cell binding, CHO-K1 cynomolgus monkey TIGIT
T5 construct: NCBI XP_015300911.1
Protocol: (§3) The collected cells were washed once with PBS (Hyclone, CAT #SH30256), resuspended to 2×10⁵/50 μL with 1% BSA-PBS. The antibodies were diluted to 80 nM with 1% BSA-PBS (diluted by 3-fold serial dilution for 12 concentration points). The 50 μL cells were then mixed with 50 μL diluted antibodies, and then incubated at 4° C. for 60 minutes. […] After washing twice with PBS, the cell samples were resuspended with 1% BSA-PBS, 100 μL/well and then analyzed by flow cytometry (BD, Canto II). […] [0298] (c) The effect of anti-TIGIT chimeric antibodies blocking the interaction between Bio-CD155-His and CHO-K1 human TIGIT high expression cell strains detected by FACS
as §2

[6] = target: T6, Fusion protein of extracellular domain of human TIGIT and human IgG1 Fc fragment (human TIGIT ECD-hFc) (human); test: blocking of TIGIT ECD-hFc binding to CHO-K1 CD155 cells
T6 construct: The entry includes the signal peptide (limits not recoverable) and the human IgG1 Fc
Procedure, shortened: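 Cell-based ELISA on CHO-K1 CD155 cells, cultured overnight, fixed and blocked with 5% skim milk-PBS. Antibodies were premixed for 0.5 h with human TIGIT ECD-hFc (working concentration 30 ng/mL), then added and held at 37° C for 1.5-2 h. Bound TIGIT was detected with HRP secondary antibody (1:5000, 37° C, 1 h) and TMB, read as OD450 nm. IC50 came from the inhibition curves.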

[7] = target: T7, Full-length human TIGIT on CHO-K1 cells (CHO-K1 human TIGIT) (human, UniProt Q495A1 22-244); test: cell binding, CHO-K1 human TIGIT high expression strain
T7 construct: NCBI XP_024309156.1; the entry includes the signal peptide (limits not recoverable); The strain (high, medium, low) is named under assay; also called high expression strain 1D2; medium expression strain 2D10
T7 sequence: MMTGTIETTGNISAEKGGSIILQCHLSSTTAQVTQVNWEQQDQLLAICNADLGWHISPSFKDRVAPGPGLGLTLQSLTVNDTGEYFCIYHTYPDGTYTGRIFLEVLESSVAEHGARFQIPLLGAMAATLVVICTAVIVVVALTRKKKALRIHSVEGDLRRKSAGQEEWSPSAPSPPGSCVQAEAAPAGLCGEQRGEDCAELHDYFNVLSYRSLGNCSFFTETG
Protocol: as §3, §2

T5 sequence (chain, as listed by the source limits assumed): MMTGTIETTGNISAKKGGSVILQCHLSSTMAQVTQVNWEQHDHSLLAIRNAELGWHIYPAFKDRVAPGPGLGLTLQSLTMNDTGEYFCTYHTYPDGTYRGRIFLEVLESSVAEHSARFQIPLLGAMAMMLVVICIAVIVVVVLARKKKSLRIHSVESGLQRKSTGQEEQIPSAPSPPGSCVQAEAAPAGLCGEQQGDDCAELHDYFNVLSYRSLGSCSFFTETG
T4 sequence (chain, as listed by the source limits assumed): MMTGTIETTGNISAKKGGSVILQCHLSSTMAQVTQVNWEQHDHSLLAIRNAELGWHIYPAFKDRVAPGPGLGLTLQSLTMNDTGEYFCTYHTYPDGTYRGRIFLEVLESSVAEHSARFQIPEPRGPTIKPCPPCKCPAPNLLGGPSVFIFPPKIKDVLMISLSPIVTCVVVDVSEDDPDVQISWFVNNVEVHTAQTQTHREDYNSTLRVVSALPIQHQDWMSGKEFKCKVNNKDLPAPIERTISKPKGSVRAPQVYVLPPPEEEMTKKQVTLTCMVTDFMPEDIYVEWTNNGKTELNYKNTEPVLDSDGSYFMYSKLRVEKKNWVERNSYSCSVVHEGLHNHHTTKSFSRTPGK
T6 sequence (chain, as listed by the source limits assumed): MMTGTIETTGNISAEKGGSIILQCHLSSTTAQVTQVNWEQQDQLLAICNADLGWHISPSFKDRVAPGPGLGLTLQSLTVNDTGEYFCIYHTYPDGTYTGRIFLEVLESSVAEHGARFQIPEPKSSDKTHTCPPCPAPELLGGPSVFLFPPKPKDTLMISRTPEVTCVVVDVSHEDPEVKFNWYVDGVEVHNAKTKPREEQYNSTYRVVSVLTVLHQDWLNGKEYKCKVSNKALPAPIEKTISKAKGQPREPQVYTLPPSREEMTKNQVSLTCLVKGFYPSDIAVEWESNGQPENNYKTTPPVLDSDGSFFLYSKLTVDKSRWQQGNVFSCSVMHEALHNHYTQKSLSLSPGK

| Binder | Kd [1] [nM] | koff [1] [s⁻¹] | kon [1] [M⁻¹ s⁻¹] | % AUC to COM701-hIgG4 [2] [%] | % AUC to SRF813-hIgG1 [2] [%] | % IC50 to COM701-hIgG4 [2] [%] | % IC50 to SRF813-hIgG1 [2] [%] | EC50 [3] [nM] | EC50 [4] [nM] | EC50 [5] [nM] | IC50 [6] [nM] | EC50 [7] [nM] |
| --- | --- | --- | --- | --- | --- | --- | --- | --- | --- | --- | --- | --- |
| PVRIG-A11 (Fc fusion, heavy chain antibody VHH-hinge-CH2-CH3, human IgG1 constant part; not shown: human IgG1 hinge-CH2-CH3) QLQLVESGGGLVQPGGSLRLSCAASGFTDDYYAIGWFRQAPGKEREGVSCISGSGGSTNYEDSVKGRFAISRDNAKNMVYLQMNDLKPEDTAVYYCAADPFWSAPCTGHNDRYFDVWGQGTLVTVSS | 0.106 | 0.00338 | 3.18e+07 | 78 | 58.9 | 62.8 | 64.1 |  |  |  |  |  |
| COM701-hIgG1 (antibody, V domains shown, positive control; human IgG1 format) VH: QVQLVQSGAEVKKPGASVKVSCKASGYTFTDYNINWVRQAPGQGLEWMGYIYPYIGGSGYAQKFQGRVTMTRDTSTSTVYMELSSLRSEDTAVYYCAREDKTARNAMDYWGQGTLVTVSS VL: DIQMTQSPSSLSASVGDRVTITCRVSENIYSNLAWYQQKPGKAPKLLIYEATNLAEGVPSRFSGSGSGTDFTLTISSLQPEDFATYYCQHFWGTPYTFGQGTKLEIK | 0.319 | 0.000651 | 2.04e+06 |  |  |  |  |  |  |  |  |  |
| TIGIT-002-H2L1 (antibody, V domains shown, Humanized anti-TIGIT antibody) VH: EVQLQESGPGLVKPSETLSLTCAVSGYSITSDSWNWIRQPPGKKLEWIGYISYSGNTYYNPSLKSRVTISRDTSKNQFSLKLSSVTAADTAVYYCARLDFSNYGGAVDYWGQGTTVTVSS VL: DIVMTQTPLSLSVTPGQPASISCKASQNVRTAVAWYLQKPGQSPQLMIYSASYRYTGVPDRFSGSGSGTDFTLKISRVEAEDVGVYYCQQYYTTPWTFGGGTKVEIK |  |  |  |  |  |  |  | 0.0188 | 0.0877 | 0.181 | 0.646 | 0.0468 |
| TIGIT-002-H1L2 (antibody, V domains shown, Humanized anti-TIGIT antibody) VH: EVQLQESGPGLVKPSETLSLTCAVSGYSITSDSWNWIRQPPGKGLEWIGYISYSGNTYYNPSLKSRVTISRDTSKNQFSLKLSSVTAADTAVYYCARLDFSNYGGAVDYWGQGTTVTVSS VL: DIVMTQTPLSLSVTPGQPASISCKASQNVRTAVAWYQQKPGQSPQLMIYSASYRYTGVPDRFSGSGSGTDFTLKISRVEAEDVGVYYCQQYYTTPWTFGGGTKVEIK |  |  |  |  |  |  |  | 0.0158 | 0.0811 | 0.221 | 0.421 | 0.0167 |
| TIGIT-002-H2L2 (antibody, V domains shown, Humanized anti-TIGIT antibody) VH: EVQLQESGPGLVKPSETLSLTCAVSGYSITSDSWNWIRQPPGKKLEWIGYISYSGNTYYNPSLKSRVTISRDTSKNQFSLKLSSVTAADTAVYYCARLDFSNYGGAVDYWGQGTTVTVSS VL: DIVMTQTPLSLSVTPGQPASISCKASQNVRTAVAWYQQKPGQSPQLMIYSASYRYTGVPDRFSGSGSGTDFTLKISRVEAEDVGVYYCQQYYTTPWTFGGGTKVEIK |  |  |  |  |  |  |  | 0.0222 | 0.0554 | 0.12 | 0.56 | 0.0215 |
| TIGIT-002-H1L1 (antibody, V domains shown, Humanized anti-TIGIT antibody) VH: EVQLQESGPGLVKPSETLSLTCAVSGYSITSDSWNWIRQPPGKGLEWIGYISYSGNTYYNPSLKSRVTISRDTSKNQFSLKLSSVTAADTAVYYCARLDFSNYGGAVDYWGQGTTVTVSS VL: DIVMTQTPLSLSVTPGQPASISCKASQNVRTAVAWYLQKPGQSPQLMIYSASYRYTGVPDRFSGSGSGTDFTLKISRVEAEDVGVYYCQQYYTTPWTFGGGTKVEIK |  |  |  |  |  |  |  | 0.0155 | 0.209 | 0.187 | 0.526 | 0.0201 |
| SRF813-hIgG1 (antibody, V domains shown, positive control; human IgG1 format) VH: QVQLVQSGAEVKKPGSSVKVSCKASGGTFSSAAISWVRQAPGQGLEWMGNIIPIVGIANYAQKFQGRVTITADESTSTAYMELSSLRSEDTAVYYCARDTGRGYTRHFWFDPWGQGTLVTVSS VL: DIQMTQSPSSLSASVGDRVTITCRASQSISSYLNWYQQKPGKAPKLLIYAASSLQSGVPSRFSGSGSGTDFTLTISSLQPEDFATYYCQQSDILYTFGGGTKVEIK | 0.278 | 0.000317 | 1.14e+06 |  |  |  |  |  |  |  |  |  |
